Test system: purified recombinant PCNA
Assay: Vapor diffusion assay of anti-Flag immunoprecipitates with purified recombinant PCNA
Format: biochemical, human
Details: anti-Flag immunoprecipitate from SK-Br-3 cells, 2 μg 6× His-PCNA
Description: Vapor diffusion assay. The assay was performed basically as previously described (Murray, E. D., Jr. & Clarke, S. J Biol Chem 259, 10722-10732 (1984). MCF7 breast cancer cell extracts were assayed 1-2 h in the presence of [^3H-methyl]-SAM (NEN). Following incubation, extracts were equilibrated with 100 mM NaOH with 2% SDS and spotted onto filter paper folded into an accordion pleat and placed into the neck of a vial above scintillation fluid. ^3H-methanol present in the scintillation fluid was measured the following day (See FIG. 1).
Protein expression and purification. HiTrap phenyl Sepharose HP and Superdex S200 columns were purchased from GE Biosciences. Chromatography was performed using a Biologic DuoFlow (BioRad). […] The CBP tag lacks both aspartic and glutamic acids. […] (Podust et al., Biochemistry 34, 8869-8875 (1995). A eukaryotic expression vector expressing a Flag-Arm1 fusion was transfected into and transiently expressed in SK-Br-3 cells with Fugene 6 (Roche). Anti-Flag immunoprecipitations were performed with Anti-Flag M2 Affintiy Gel (Sigma) and detected by Western analysis using anti-DDK antibodies (Origene). PIP-affinity beads were generated by covalently coupling synthetic p21 PIP peptide (Anaspec) to CH Sepharose (GE Biosciences). […]

B1: Flag-Arm1: Flag-tagged C6orf211 protein fusion, PCNA-dependent carboxyl methyltransferase (SEQ ID NO: 33) (protein, listed as Homo sapiens)
chain: MAVVPASLSGQDVGSFAYLTIKDRIPQILTKVIDTLHRHKSEFFEKHGEEGVEAEKKAISLLSKLRNELQTDKPFIPLVEKFVDTDIWNQYLEYQQSLLNESDGKSRWFYSPWLLVECYMYRRIHEAIIQSPPIDYFDVFKESKEQNFYGSQESIIALCTHLQQLIRTIEDLDENQLKDEFFKLLQISLWGNKCDLSLSGGESSSQNTNVLNSLEDLKPFILLNDMEHLWSLLSNCKKTREKASATRVYIVLDNSGFELVTDLILADFLLSSELATEVHFYGKTIPWFVSDTTIHDFNWLIEQVKHSNHKWMSKCGADWEEYIKMGKWVYHNHIFWTLPHEYCAMPQVAPDLYAELQKAHLILFKGDLNYRKLTGDRKWEFSVPFHQALNGFHPAPLCTIRTLKAEIQVGLQPGQGEQLLASEPSWWTTGKYGIFQYDGPL
modifications: Flag tag
PCNA-dependent carboxyl methyltransferase activity: Significant levels

— US20120258482A1, “PCNA […]” (INDIANA UNIVERSITY RESEARCH AND TECHNOLOGY CORPORATION, priority 2009, published 2012)
